Results from patent US20230257479A1 (Genmab, published 2023).
Where a chain is given by its changes, count along the chain named.

Key:
Assay in all cases: alanine scanning, flow cytometry on HEK293 cells, normalised to bsIgG1-5T4-A1-F405Lxb12-FEAR-FITC
[1] = target: T1, human 5T4 with L309 mutated to alanine, on HEK293 cells (human, UniProt Q13641 32-420)
T1 sequence: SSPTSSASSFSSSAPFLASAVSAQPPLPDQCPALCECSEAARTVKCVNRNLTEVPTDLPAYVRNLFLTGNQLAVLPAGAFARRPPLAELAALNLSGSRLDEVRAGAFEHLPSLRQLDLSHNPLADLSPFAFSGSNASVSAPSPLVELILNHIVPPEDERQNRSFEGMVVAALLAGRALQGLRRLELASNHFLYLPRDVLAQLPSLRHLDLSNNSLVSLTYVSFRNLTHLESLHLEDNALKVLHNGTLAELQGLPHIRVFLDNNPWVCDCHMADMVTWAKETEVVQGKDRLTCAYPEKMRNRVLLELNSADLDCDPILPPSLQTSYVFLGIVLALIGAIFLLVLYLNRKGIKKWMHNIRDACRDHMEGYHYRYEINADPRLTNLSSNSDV
Experimental: (§1) One day post transfection, the cells were harvested. […] Subsequently, cells were washed twice by centrifugation using 150-180 µL FACS buffer. Cells were resuspended in 30 µL FACS buffer and stored at 4° C. until analysis by flow cytometry using an iQue screener (Intellicyt Corporation).

[2] = target: T2, human 5T4 with P326 mutated to alanine, on HEK293 cells (human, UniProt Q13641 32-420)
T2 sequence: T1 sequence with A278L, P295A
Experimental: as §1

[3] = target: T3, human 5T4 with L281 mutated to alanine, on HEK293 cells (human, UniProt Q13641 32-420)
T3 sequence: T1 sequence with L250A, A278L
Experimental: as §1

B1: bsIgG1-b12-FEALx5T4-226-FEAR-FITC (bispecific antibody, V domains shown)
VH 1: QVQLVQSGAEVKKPGASVKVSCQASGYRFSNFVIHWVRQAPGQRFEWMGWINPYNGNKEFSAKFQDRVTFTADTSANTAYMELRSLRSADTAVYYCARVGPYSWDDSPQDNYYMDVWGKGTTVIVSS
VL 1: EIVLTQSPGTLSLSPGERATFSCRSSHSIRSRRVAWYQHKPGQAPRLVIHGVSNRASGISDRFSGSGSGTDFTLTITRVEPEDFALYYCQVYGASSYTFGQGTKLERK
VH 2: QVQLQQWGAGLLKPSETLSLTCAVYGGSFSGYYWSWIRQPPGKGLEWIGEIDHSGSTNYNPSLKSRVTISVDTSKNQFSLKLSSVTAADTAVYYCAAWFGELWDYYYGMDVWGQGTTVTVSS
VL 2: EIVLTQSPATLSLSPGERATLSCRASQSVSSFLAWYQQKPGQAPRLLIYDASNRATGIPARFSGSGSGTDFTLTISSLEPEDFAVYYCQQRSNWPLTFGQGTRLEIK
notes: b12 arm IgG1 FEAL, 5T4 arm IgG1 FEAR
[1]
  Z-score (fold change) of binding: -1.63
[2]
  Z-score (fold change) of binding: -1.67
[3]
  Z-score (fold change) of binding: -1.65
